“Also recorded” adds a separate entry of the source.
Legend:
ubiquitin-AMC = experiment: Hydrolysis of ubiquitin-AMC by TAT fusion proteins; format: biochemical; details: 20 nM TAT fusion proteins
Procedure: Measurement of Hydrolase Activity: The hydrolase assay was performed as previously described (Nishikawa et al., 2003) with slight modifications. Briefly, hippocampal tissue was treated with tissue protein extraction reagent (T-PER; Pierce) containing freshly added EDTA-free protease inhibitors. Homogenate was centrifuged at 10,000 rpm for 5 min. Protein concentration was measured in the supernatant using the BCA protein assay reagent. In some experiments hydrolysis was initiated by adding 10 μl of 20 nM Uch-L1 or Uch-L3 (Boston Biochem). The hydrolase assay was performed using fluorogenic ubiquitin-7-amino-4-methylcoumarin (ubiquitin-AMC) (Boston Biochem) as a substrate. The substrate was diluted in assay buffer (50 mM Tris-HCL, 0.5 mM EDTA, 5 mM dithiothreitol and 0.1 mg/ml ovalbumin, pH 7.6). […] The reaction was monitored using a fluorescence spectrophotometer (CytoFluor Series 4000, ABI Inc) at 25° C. The free AMC fluorophore was excited at 380 nm and measured at 460 nm. Hydrolase activity was expressed as relative fluorescence intensity/min (Dang et al., 1998). In some experiments, hydrolysis was also measured on the soluble and insoluble fractions (FIG. 28D). In a group of experiments hydrolysis was measured by mixing ubiquitin-AMC with 20 nM TAT fusion proteins (FIG. 27C). […]

[1] = tested on: SY5Y neuroblastoma cells transfected with a degron CL1-GFP expression vector; experiment: Proteasome reporter assay (GFP^u); format: cell-based, human; details: substance alone
Procedure: Proteasome reporter assays. In this cell line, human neuroblastoma SH-SY5Y cells were permanently transfected with reporter construct consisting of green fluorescent protein (GFP) conjugated at its C-terminus to a short degron sequence (CL-1) (Gilon et al., 1998). […] The SY5Y-GFP^u cells were grown in 1×DMEM (Invitrogen) supplemented with 15% fetal bovine serum (JRH), 1× penicillin/streptomycin (Gibco). After indicated treatments, GFP^u concentrations were assayed by densitometric analysis of immunoblots of total protein extracts (10 ug/lane) using monoclonal GFP antibodies (Santa Cruz Biotechnology) and visualized with HRP-conjugated secondary antibodies and ECL (Pierce). Loading equalization was normalized by probing blots with anti-ERK antibodies (Santa Cruz Biotechnology).

phospho-CREB at Ser-133 = experiment: Phospho-CREB (Ser-133) Western blot in hippocampal cultures; format: cell-based, rat
Procedure: Western Blotting: Protein levels were assessed using standard procedures. Protein extraction was performed using buffer with and without detergent. For the extraction of protein using detergent, hippocampal tissues and cultured hippocampal neurons (5 DIV) were homogenized in RIPA buffer (50 mM Tris-HCl pH 7.4, 1% Triton X-100, 1% sodium deoxycholate, 0.1% SDS, 150 mM sodium chloride, 10 mM sodium fluoride, 30 mM sodium pyrophosphate, 50 mM sodium orthovanadate) containing 1× complete protease inhibitor (Roche) and 1 mM phenylmethylsulfonyl fluoride (PMSF). For extraction of proteins without detergent, hippocampal extracts were homogenized with disposable dounce homogenizers in buffer A, containing 10 mM HEPES pH 7.3, 300 mM sucrose, protease 1× complete protease inhibitor (Roche) and PMSF. After centrifugation at 10,000×g supernatant proteins were resolved on a 8% or 4-20% gradient Tris-Glycine gel, transferred onto PVDF or nitrocellulose membrane and blocked in 5% skim milk in PBS-Tween 0.1% (PBS-T). Membranes were probed with primary antibodies, and after washing with PBS-T incubated with an appropriate HRP-conjugated secondary antibody. The following antibodies were used: mouse monoclonal anti-ubiquitin (Chemicon), rabbit polyclonal anti-pCREB (Upstate Biotech.), rabbit polyclonal anti-PKA-RIIα (Santa Cruz Biotech. Inc), mouse monoclonal anti-Uch-L1 (Novocastra), monoclonal mouse anti-HA (Santa Cruz Biotech. Inc), and anti-PKA IIα. Detection was performed using HRP-conjugated secondary antibodies (Pierce, Rockford, Ill.). To control loading and transfer, protein immunoreactivities were normalized against total extracellular signal-regulated protein kinases (ERK1/2) levels with a rabbit analyzed using a rabbit polyclonal anti-ERK1/2 antibody (Cell Signaling Technology, Inc). NIH IMAGE was used to analyze the scanned blots and quantify the intensity of the protein signals.
Preparation of Cell Cultures. Hippocampal cell cultures were prepared as previously described (Vitolo et al., 2002). In cell culture experiments fetuses at embryonic day 18 from timed pregnant Sprague-Dawley rats (Taconic Farms) were used. Fetuses were sacrificed and the hippocampi removed. Neurons were then dissociated, plated on 6 well-plates coated with poly-L-lysine and maintained in a defined serum-free medium containing minimum essential medium supplemented with N-2, glucose, albumin, pyruvic acid, antibiotics and antimycotics. […] 5 DIV cells were used for the experiments.

mice (WT and APP/PS1) = experiment: Contextual and cued fear conditioning; format: in vivo, mouse; details: 0.02-0.04 g/kg i.p.; 1, 7, 14 and 21 days after training
Procedure: Behavioral Studies: Fear conditioning was performed in a conditioning chamber as previously described (Bourtchuladze et al., 1994; Gong et al., 2004). For contextual and cued fear conditioning mice were placed in the conditioning chamber for 2 min before the onset of a discrete tone (CS) (a 30 sec sound at 2800 Hz and 85 dB). In the last 2 sec of the CS, mice were given a foot shock (US) of 0.50 mA for 2 sec through the bars of the floor. After the CS/US pairing, the mice were left in the conditioning chamber for another 30 sec and then placed back in their home cages. Freezing behavior, defined as the absence of all movement except for that necessitated by breathing, was scored using Freezeview software. To evaluate contextual fear learning, freezing was measured for 5 min in the chamber in which the mice were trained 24 hrs after training. To evaluate cued fear conditioning, following contextual testing, the mice were placed in a novel context (triangular cage with smooth flat floor and with vanilla odorant) for 2 min (pre-CS test), after which they were exposed to the CS for 3 min (CS test), and freezing was measured. To evaluate the contextual fear over time, mice were placed for 5 min in the chamber in which the mice were trained 7- 14- 21-days after training. Sensory perception of the shock was determined through threshold assessment. Each animal was placed individually into the conditioning chamber. […] Animal behavior was evaluated for the first visible response to the shock (flinch), the first extreme motor response (run/jump), and the first vocalized distress (scream). Threshold to flinching, jumping, and screaming was quantified for each animal by averaging of the shock intensity at which each animal manifested a behavioral response of that type to the foot shock. Visual, motor, and motivation skills were also tested with visible platform training by measuring the time and the speed to reach a visible platform placed within a pool filled with water (Gong et al., 2004). Both time to reach the platform and swimming speed were recorded and analyzed with a video tracking system (HVS-2020, HVS Image, UK). No difference was observed among different groups of mice in the experiments in which fear conditioning was tested both in the presence of LDN and TAT fusion proteins. To decide the time of administration of LDN, experiments were performed in which the inhibitor was injected intra-peritoneally at different intervals (4 hrs before, 1 hr before, 1 hr after and 4 hrs after) from the electric shock. During the training phase, no difference was found in the freezing of LDN- or vehicle-injected mice.

[2] = tested on: CA1-LTP in hippocampal slices; experiment: CA1-LTP in hippocampal slices (theta-burst); format: cell-based, mouse; details: for Aβ-induced impairment of CA1-LTP (words): fusion protein 20 nM 1 hr, then plus Aβ 200 nM 20 min; for LTP in slices not treated with Aβ (words): fusion protein 20 nM, 1 hr, WT slices, 3 theta-burst trains

B1: TAT-HA-Uch-L1(C90S): mutant TAT-HA-Uch-L1 construct, C90S (hydrolase site), made by site-directed mutagenesis (protein, UniProt P09936 1-220, looked up, variant C90S)
Ubiquitin carboxyl-terminal …: MQLKPMEINPEMLNKVLSRLGVAGQWRFVDVLGLEEESLGSVPAPACALLLLFPLTAQHENFRKKQIEELKGQEVSPKVYFMKQTIGNSSGTIGLIHAVANNQDKLGFEDGSVLKQFLSETEKMSPEDRAKCFEKNEAIQAAHDAVAQEGQCRVDDKVNFHFILFNNVDGHLYELDGRMPFPVNHGASSEDTLLKDAAKVCREFTEREQGEVRFSAVALC
modifications: fused to HIV TAT transduction peptide and HA tag
notes: mutant TAT-HA-Uch-L1 construct, C90S (hydrolase site), made by site-directed mutagenesis
B1 was tested, and the “Uch (hydrolase) activity of TAT constructs (words)” value (ubiquitin-AMC) was “little or no activity”, the “Uch (hydrolase) activity of TAT constructs (words)” value (ubiquitin-AMC; listed as TAT-HA-Uch-L1 (C90S)) was “inactive” and the “GFP^u levels” value [1] was “increase in GFP^u”. The “glutamate-induced increase in CREB phosphorylation” value (phospho-CREB at Ser-133; cultures not treated with Aβ) was “blocked the glutamate-induced increase in CREB phosphorylation”, the “effect of Aβ on glutamate-induced CREB phosphorylation (words)” value (phospho-CREB at Ser-133; fusion protein 100 nM, 3 μM Aβ 24 hrs, 50 μM glutamate 15 min) was “did not allow the enhancement of phospho-CREB” and the “contextual learning in WT mice” value (mice (WT and APP/PS1)) was “impaired both contextual learning and its decay; also recorded: worsened contextual conditioning performance”. For the same molecule, the “Aβ-induced impairment of CA1-LTP (words)” value [2] was “failed to protect against LTP suppression; also recorded: failed to reverse”, the “Aβ-induced impairment of CA1-LTP (words)” value ([2]; listed as TAT-HA-Uch-L1(C90S) peptide) was “did not protect against LTP suppression” and the “LTP in slices not treated with Aβ (words)” value (from here on “LTP in slices not treated”) [2] was “severely impaired potentiation”. For the same molecule, the “LTP in slices not treated” value ([2]; listed as Mutant (C90S) TAT-Uch-L1 fusion protein) was “reduces LTP”, the “LTP in slices not treated” value ([2]; listed as mutant (C90S) TAT-Uch-L1) was “dramatically reduced LTP” and the amounts of potentiation ([2]; fusion protein alone, no Aβ) was 152.38±10.90%. For the same molecule, the “decrease in potentiation compared to vehicle or TAT-HA-iUch-L1” value ([2]; fusion protein alone, no Aβ) was ~60% and the “baseline transmission in slices without tetanic stimulation” value ([2]; non-tetanized slices) was “Neither TAT-HA-Uch-L1(C90S) nor TAT-HA-Uch-L1(S18Y) affected baseline; also recorded: did not affect basal transmission”.

Reference: US7947279B2, “Peptide having hydrolase activity” (The Trustees of Columbia University in the City of New York, priority 2005, dated 2011)
